The results in this text go back to US20040009172A1, “Use of anti-TNFalpha antibodies and another drug” (priority 2002, published 2004).

The test system of this series is patients with rheumatoid arthritis (RA). Nature of the series: Multicenter, randomized, double-blind, placebo-controlled study of D2E7 in RA patients: safety (adverse events). In kind it is in vivo, human. The procedure: A study was designed and conducted to investigate the safety and efficacy of D2E7 40 mg administered every other week to patients with RA whose disease was not adequately treated with their current anti-rheumatic therapies (including accepted DMARDs, NSAIDs, or steroids); and was a multicenter, randomized, double-blind, placebo-controlled study in which D2E7 was subcutaneously (sc) administered every other week for up to 24 weeks at a dosage of 40 mg to patients with rheumatoid arthritis (RA) whose disease was not adequately treated with their current anti-rheumatic therapies. Anti-rheumatic therapies permitted for use during the study included accepted disease-modifying anti-rheumatic drugs (DMARDs), non-steroidal anti-inflammatory drugs (NSAIDs), or steroids. Despite using anti-rheumatic therapies, patients must have had active disease documented at both the screening and baseline visits. Doses of DMARDs, as well as concomitant prednisone (<10 mg daily) and NSAIDs, were required to be stable for at least 28 days prior to screening. Additionally, patients using azathioprine and/or cyclosporine discontinued these therapies and underwent a 28-day washout period before screening. At the baseline visit, patients were randomized to D2E7 or placebo and this signified the start of the 24-week placebo-controlled period. Patients were examined at Weeks 2, 4, 8, 12, 16, 20 and 24 of the study.
D2E7 was supplied in 2-mL glass vials (the concentration of D2E7 in each vial was 25 mg/mL (ie, 40 mg/1.6 mL)), each containing 40 mg D2E7/1.6 mL solution for injection. D2E7 was manufactured and supplied by Ebewe Arzneimittel GmbH, in Unterach, Austria. McKesson, FIBOC Biosciences, in Rockville, Md., USA, packaged, labeled, stored and distributed D2E7 to the investigators at, each site for this study. […]
Adverse events were summarized by frequency, percentage, as well as the rate per 100 patient-years. […] All other efficacy variables were summarized descriptively (statistical characteristics, frequencies, percentages, confidence intervals) and analyzed by exploratory two-sided statistical tests. […]

[1] abbreviates: added to existing DMARD therapies.

As for “D2E7: recombinant, neutralizing human anti-hTNFα antibody; VL region SEQ ID NO: 1, VH region SEQ ID NO: 2”, the Safety result (40 mg, alone or in combination with other DMARDs) is reported as “safe”. Under setting [1], the “Incidence or profile of adverse events” value is recorded as “not associated with any major changes in the incidence or profile of adverse events” and the Tolerability entry is recorded as “generally well-tolerated”.
